Results reported in publication PMC9287376 (Nature Communications, 2022).

B1: wild-type trigger factor (natural protein)
chain: MQVSVETTQGLGRRVTITIAADSIETAVKSELVNVAKKVRIDGFRKGKVPMNIVAQRYGASVRQDVLGDLMSRNFIDAIIKEKINPAGAPTYVPGEYKLGEDFTYSVEFEVYPEVELQGLEAIEVEKPIVEVTDADVDGMLDTLRKQQATWKEKDGAVEAEDRVTIDFTGSVDGEEFEGGKASDFVLAMGQGRMIPGFEDGIKGHKAGEEFTIDVTFPEEYHAENLKGKAAKFAINLKKVEERELPELTAEFIKRFGVEDGSVEGLRAEVRKNMERELKSAIRNRVKSQAIEGLVKANDIDVPAALIDSEIDVLRRQAAQRFGGNEKQALELPRELFEEQAKRRVVVGLLLGEVIRTNELKADEERVKGLIEEMASAYEDPKEVIEFYSKNKELMDNMRNVALEEQAVEAVLAKAKVTEKETTFNELMNQQA
notes: trigger factor, a bacterial ATP-independent chaperone; results are mapped onto the crystal structure pdb 1w26; Monomer-dimer equilibrium; predominantly monomeric under the conditions used (low uM, 0.26 M GdnHCl); also called TF; source: E. coli BL21 (DE3), purified (Ni-His Trap, ULP1 cleavage, HiTrap Q, Superdex 75); not shown: His-Sumo, N-terminal, cleaved
B2: Fluorescein-5-maleimide-labelled trigger factor E326C (natural protein)
chain: MQVSVETTQGLGRRVTITIAADSIETAVKSELVNVAKKVRIDGFRKGKVPMNIVAQRYGASVRQDVLGDLMSRNFIDAIIKEKINPAGAPTYVPGEYKLGEDFTYSVEFEVYPEVELQGLEAIEVEKPIVEVTDADVDGMLDTLRKQQATWKEKDGAVEAEDRVTIDFTGSVDGEEFEGGKASDFVLAMGQGRMIPGFEDGIKGHKAGEEFTIDVTFPEEYHAENLKGKAAKFAINLKKVEERELPELTAEFIKRFGVEDGSVEGLRAEVRKNMERELKSAIRNRVKSQAIEGLVKANDIDVPAALIDSEIDVLRRQAAQRFGGNCKQALELPRELFEEQAKRRVVVGLLLGEVIRTNELKADEERVKGLIEEMASAYEDPKEVIEFYSKNKELMDNMRNVALEEQAVEAVLAKAKVTEKETTFNELMNQQA
modifications: fluorescein-5-maleimide on the cysteine of E326C
notes: Labelling efficiency typically above 92%; also called fluorescently labelling trigger factor; source: E. coli BL21 (DE3), purified (Ni-His Trap, ULP1 cleavage, HiTrap Q, Superdex 75), labelled with fluorescein-5-maleimide; not shown: His-Sumo, N-terminal, cleaved
B4: refolding glyceraldehyde 3-phosphate dehydrogenase (rabbit GAPDH, GdnHCl-denatured and diluted into refolding buffer) (enzyme)
chain: not shown
notes: glyceraldehyde 3-phosphate dehydrogenase, rabbit (rabbit-muscle GAPDH, pdb 1J0X); Native GAPDH is a tetramer; The protein from tissue likely lacks the initiator methionine (surmise); also called rGAPDH; source: bought: Sigma-Aldrich (G2267), purified rabbit GAPDH; denatured in 3 M GdnHCl and diluted into buffer A

Columns and labels:
[1] = biological target: B4; assay: AUC; sedimentation velocity; 5 μM refolding GAPDH alone or with 15 μM trigger factor; buffer A (0.1 M potassium phosphate pH 7.5, 0.1 M KCl, 1 mM TCEP) with 0.26 M GdnHCl, 4 °C, 40,000 r.p.m.; details: both partners purified
[2] = biological target: T1, refolding Vibrio harveyi luciferase (urea-denatured and diluted into refolding buffer) (Vibrio harveyi, UniProt P07740 1-355; P07739 1-324); assay: AUC; sedimentation velocity; 2 μM refolding luciferase alone or with 16 μM trigger factor; buffer A with 0.1 M urea, 4 °C, 35,000 r.p.m.; details: both partners purified
T1 construct: alpha subunit of the heterodimeric flavin monooxygenase luciferase of Vibrio harveyi; beta subunit of the heterodimeric flavin monooxygenase luciferase of Vibrio harveyi; In the assays the heterodimer was urea-denatured; also called luciferase subunits; source: E. coli (pET21b), purified (Ni-His Trap, Superdex 75); denatured in 5 M urea and diluted into buffer A; not shown: His tag (on the …)
T1 sequence (looked up) 1: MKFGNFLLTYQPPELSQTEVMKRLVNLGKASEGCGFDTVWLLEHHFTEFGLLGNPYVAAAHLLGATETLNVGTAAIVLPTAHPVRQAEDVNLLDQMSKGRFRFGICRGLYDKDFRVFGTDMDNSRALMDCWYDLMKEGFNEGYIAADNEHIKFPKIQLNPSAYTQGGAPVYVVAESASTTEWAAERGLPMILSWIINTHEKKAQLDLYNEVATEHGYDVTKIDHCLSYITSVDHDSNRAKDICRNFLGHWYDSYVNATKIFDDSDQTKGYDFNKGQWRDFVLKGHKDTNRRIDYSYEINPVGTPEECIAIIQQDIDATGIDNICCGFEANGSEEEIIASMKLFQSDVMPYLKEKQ
T1 sequence (looked up) 2: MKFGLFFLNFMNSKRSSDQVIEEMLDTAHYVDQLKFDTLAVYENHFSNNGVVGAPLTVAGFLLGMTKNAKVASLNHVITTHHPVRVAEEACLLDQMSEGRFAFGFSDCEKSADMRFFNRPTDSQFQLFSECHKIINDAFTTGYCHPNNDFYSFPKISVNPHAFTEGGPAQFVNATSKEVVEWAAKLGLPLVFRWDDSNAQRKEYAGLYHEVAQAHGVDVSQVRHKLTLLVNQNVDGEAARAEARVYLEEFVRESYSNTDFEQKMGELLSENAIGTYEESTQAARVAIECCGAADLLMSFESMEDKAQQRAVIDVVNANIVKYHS

[3] = biological target: T1, refolding Vibrio harveyi luciferase …; assay: fluorescence polarisation; anisotropy titration; 0.5 μM fluorescein-labelled trigger factor E326C titrated with urea-denatured luciferase; buffer A, 25 °C; hyperbola fit; apparent; details: both partners purified
wild-type trigger factor [4] = biological target: B1; assay: fluorescence polarisation; stopped-flow anisotropy; 0.13 μM labelled denatured GAPDH mixed with 0.13–3.24 μM trigger factor; 0.1 M potassium phosphate pH 7.6, 0.1 M KCl, 1 mM TCEP, 0.26 M GdnHCl, 4 °C; linear fit of kobs against trigger factor concentration; details: both partners purified
[5] = biological target: B2; assay: fluorescence polarisation; anisotropy titration; 0.5 μM fluorescein-labelled trigger factor E326C titrated with GdnHCl-denatured GAPDH; buffer A, 4 °C; quadratic fit; apparent; details: both partners purified
wild-type trigger factor [6] = biological target: B1; assay: cross-linking; XL-MS; 6 μM denatured GAPDH diluted into buffer A with equimolar trigger factor (0.26 M GdnHCl), 2 h on ice, then 2 mM disuccinimidyl dibutyric urea 2 h on ice; SDS–PAGE and LC–MS; details: both partners purified
[7] = biological target: the molecule itself; assay: AUC; sedimentation velocity; 5 μM refolding GAPDH alone or with 15 μM trigger factor; buffer A (0.1 M potassium phosphate pH 7.5, 0.1 M KCl, 1 mM TCEP) with 0.26 M GdnHCl, 4 °C, 40,000 r.p.m.

Binder: B1
- stoichiometry N [1]: 1
- stoichiometry N [2]: 1

Binder: B2
- Kd [3]: 4.5 µM

B3: Alexa Fluor 488-labelled GAPDH (enzyme)
chain: not shown
modifications: CF Fluor 488 A maleimide (called Alexa Fluor 488) on cysteine; the paper says only Cys 149 is solvent-exposed in the native tetramer
notes: glyceraldehyde 3-phosphate dehydrogenase, rabbit; Labelling efficiency typically above 98%; also called fluorophore labelled GAPDH; source: bought: Sigma-Aldrich (G2267), labelled with CF Fluor 488A maleimide, denatured in GdnHCl
- koff (wild-type trigger factor [4]): 8.7 s⁻¹
- kon (wild-type trigger factor [4]): 6.6e+06 M⁻¹ s⁻¹

Binder: B4
- Kd [5]: 320 nM
- binding result (wild-type trigger factor [6]): binds
- binding result [7]: binds
